According to patent publication US20260069707A1, “COMBINATION THERAPY WITH ANTIBODY-DRUG CONJUGATES AND HYALURONIDASES” (HALOZYME, INC., priority 2024, published 2026):
“And” between values parts separate entries of the source, which are not always exact repeats. Equal entries are not always repeated.

Legend:
[1] = Serum PK of Enhertu: total antibody, total ADC, free payload (HPLC-MS/MS), IV vs SC vs SC + rHuPH20; settings: for TADC/TAB Ratio: listed as ADC
Experimental: Serum concentrations of total ADC, total antibody and Free Payload (unconjugated deruxtecan) were determined in three separate assays using HPLC with MS/MS detection.
A 20.0-μL sample aliquot was diluted 10-fold. A portion of the diluted sample was taken and processed using an immunoaffinity approach. […] The bound proteins were subjected to “on-bead” proteolysis with trypsin. After trypsin digestion, the samples were split into two portions. One portion used the characteristic peptide fragments produced from the trypsin digestion to quantitate total antibody. The second portion was further digested using papain to hydrolyze Dxd from the antibody to quantitate total ADC.
VVSV was used for the quantitation of total antibody concentrations, DSTY was used for the quantitation of intact antibody (troubleshooting purposes only), and Dxd was used for quantitating Total ADC concentrations.
A nominal free Dxd, concentration range of […] was chosen to quantitate samples. This assay requires a 50.0 μL porcine serum and skin aliquot. Samples were kept frozen at −80° C. prior to analysis.
A matrix aliquot is fortified with internal standard. Analytes are isolated through acidified protein precipitation. The eluate is evaporated under a nitrogen stream, and the remaining residue is reconstituted. Final extracts are analyzed via HPLC MS/MS detection using positive ion electrospray.

[2] = Post-injection bleb volume, area, height - caliper measurement; assay type: in vivo, Yucatan miniature pig (Sus scrofa domestica)
Experimental: (§1) The needle was inserted vertically into the marked injection site and the HVAI held in place by hand. Target needle insertion depth was ˜10 mm. Injections were timed using a stopwatch. Upon completion of the injection the needle was removed and the HVAI device discarded. Test solution back-leakage was then absorbed to a tared eye-spear for 30 seconds on the injection site and the weight of the eye spear was measured using an analytical balance. The margins of the injection site bleb were marked with a permanent marker and measured for length, width, and height using a digital caliper and recorded then photographed with the standard and 3D cameras. Caliper measurements and photographs were taken immediately post-injection. Local injection sites were qualitatively assessed and graded daily for erythema severity, swelling size appearance, and firmness, using a scoring system described in Table 4 Table 5, and Table 6, respectively.
Assessment of Local Swelling Volume and Area Using Caliper Measurement and 3D Imaging. Volume and area of post-injection swelling were measured using both caliper measurement and 3D camera image analysis. For caliper measurements a digital caliper was utilized to measure length, width and height of the bleb that formed post-injection. The length and width are defined as the edge to edge measurements of the bleb (i.e., diameter) along their longest axes. These values were manually recorded, and the volume determined using the formula for half of an ellipsoid Vol=(⅔)*π*A*B*C where A=Length/2, B=Width/2 and C=Height.
Assessment of Post-Injection Bleb Volume, Area and Height (Caliper Measurements). The local injection site swelling (bleb) was marked and measured using a digital caliper.

[3] = Qualitative assessment of local injection sites (erythema, swelling size, induration); assay type: in vivo, Yucatan miniature pig (Sus scrofa domestica)
Experimental: as §1
Approximately, 24 hours post-dosing of the first injection, each animal was re-anesthetized, and injection sites assessed for erythema, induration and swelling, then photographed and returned to its cage.

[4] = Example 4 Study #1: bleb after 20 mL SC
[5] = Example 4 Study #2: bleb after 20 mL SC
[6] = Example 5: post-injection, 10 mL SC by HVAI

Substance: Sacituzumab govitecan [Trodelvy]
- Relative difference in serum AUC0-7, Free Payload, vs. ADC-IV ([1]; SC vs. ADC-IV): 83%
- Relative difference in serum AUC0-7, TAB, vs. ADC-IV ([1]; SC vs. ADC-IV): 59%
- Relative difference in serum AUC0-7, TADC, vs. ADC-IV ([1]; SC vs. ADC-IV): 60%
- Relative difference in serum Cmax, Free Payload, vs. ADC-IV ([1]; SC vs. ADC-IV): 70%
- Relative difference in serum Cmax, TAB, vs. ADC-IV ([1]; SC vs. ADC-IV): 28%
- Relative difference in serum Cmax, TADC, vs. ADC-IV ([1]; SC vs. ADC-IV): 29%
- TADC/TAB ratio - serum, mean ([1]; SC, 6 h): 1.054
- TADC/TAB ratio - serum, mean ([1]; SC, 24 h): 1.195
- TADC/TAB ratio - serum, mean ([1]; SC, 48 h): 0.796
- TADC/TAB ratio - serum, mean ([1]; SC, 72 h): 0.806
- TADC/TAB ratio - serum, mean ([1]; SC, 96 h): 0.765
- TADC/TAB ratio - serum, mean ([1]; SC, 168 h): 1.028
- SC/IV, mean AUC0-7, ADC ([1]; minipig serum): 60%
- SC/IV, mean AUC0-7, Ab ([1]; minipig serum): 59%
- SC/IV, mean AUC0-7, Payload ([1]; minipig serum): 83%
- SC/IV, mean Cmax, ADC ([1]; minipig serum): 29%
- SC/IV, mean Cmax, Ab ([1]; minipig serum): 28%
- SC/IV, mean Cmax, Payload ([1]; minipig serum): 70%
- ADC/Ab ratio, mean AUC0-7 ([1]; minipig serum, IV): 86%
- ADC/Ab ratio, mean Cmax ([1]; minipig serum, IV): 93%
- ADC/Payload ratio, mean AUC0-7 ([1]; minipig serum, IV): 116066%
- ADC/Payload ratio, mean Cmax ([1]; minipig serum, IV): 201037%
- ADC/Ab ratio, mean AUC0-7 ([1]; minipig serum, SC): 87%
- ADC/Ab ratio, mean Cmax ([1]; minipig serum, SC): 96%
- ADC/Ab ratio, mean Tmax ([1]; minipig serum, SC): 60%
- ADC/Payload ratio, mean AUC0-7 ([1]; minipig serum, SC): 83512%
- ADC/Payload ratio, mean Cmax ([1]; minipig serum, SC): 83474%
- ADC/Payload ratio, mean Tmax ([1]; minipig serum, SC): 57%
- AUC0-7, free payload in serum ([1]; pig, in vivo, iv): 0.04 µg·days/mL
- AUC0-7, total ADC in serum ([1]; pig, in vivo, iv): 47.73 µg·days/mL
- AUC0-7, total antibody in serum ([1]; pig, in vivo, iv): 55.38 µg·days/mL
- AUC0-7 free payload ([1]; pig, in vivo, iv): 0.04 µg·days/mL
- AUC0-7 total ADC (TADC) ([1]; pig, in vivo, iv): 47.73 µg·days/mL
- AUC0-7 total antibody (TAB) ([1]; pig, in vivo, iv): 55.38 µg·days/mL
- Cmax free payload ([1]; pig, in vivo, iv): 10 ng/mL
- Cmax total ADC (TADC) ([1]; pig, in vivo, iv): 25120 ng/mL
- Cmax total antibody (TAB) ([1]; pig, in vivo, iv): 27000 ng/mL
- Cmax, free payload in serum ([1]; pig, in vivo, iv): 10 ng/mL
- Cmax, total ADC in serum ([1]; pig, in vivo, iv): 25120 ng/mL
- Cmax, total antibody in serum ([1]; pig, in vivo, iv): 27000 ng/mL
- Tmax free payload ([1]; pig, in vivo, iv): 0 h
- Tmax total ADC (TADC) ([1]; pig, in vivo, iv): 0 h
- Tmax total antibody (TAB) ([1]; pig, in vivo, iv): 0 h
- Tmax, free payload in serum ([1]; pig, in vivo, iv): 0 h
- Tmax, total ADC in serum ([1]; pig, in vivo, iv): 0 h
- Tmax, total antibody in serum ([1]; pig, in vivo, iv): 0 h
- Total ADC concentration in the serum of minipigs ([1]; pig, in vivo, iv, 0 h): 25.12 µg/mL
- Total ADC Result ([1]; pig, in vivo, iv, 5 mL): <0.100 µg/mL
- Total ADC concentration in the serum of minipigs ([1]; pig, in vivo, iv, 5 mL, 6 h): 21.40 µg/mL
- Total ADC concentration in the serum of minipigs ([1]; pig, in vivo, iv, 5 mL, 24 h): 12.80 µg/mL
- Total ADC Result ([1]; pig, in vivo, iv, 6 h): 21.4 µg/mL
- Total ADC Result ([1]; pig, in vivo, iv, 24 h): 12.8 µg/mL
- Total ADC Result ([1]; pig, in vivo, iv, 48 h): 7.28 µg/mL
- Total ADC concentration in the serum of minipigs ([1]; pig, in vivo, iv, 48 h): 7.28 µg/mL
- Total ADC Result ([1]; pig, in vivo, iv, 72 h): 5.04 µg/mL
- Total ADC concentration in the serum of minipigs ([1]; pig, in vivo, iv, 72 h): 5.04 µg/mL
- Total ADC Result ([1]; pig, in vivo, iv, 96 h): 3.91 µg/mL
- Total ADC concentration in the serum of minipigs ([1]; pig, in vivo, iv, 96 h): 3.91 µg/mL
- Total ADC Result ([1]; pig, in vivo, iv, 168 h): 1.70 µg/mL
- Total ADC concentration in the serum of minipigs ([1]; pig, in vivo, iv, 168 h): 1.70 µg/mL
- Tmax total ADC (TADC) ([1]; pig, in vivo, sc): 24 h
- Tmax, total ADC in serum ([1]; pig, in vivo, sc): 24 h
- Total ADC Result ([1]; pig, in vivo, sc, 0 h): <0.100 µg/mL
- Total ADC concentration in the serum of minipigs ([1]; pig, in vivo, sc, 5 mL, 6 h): 4.08 µg/mL
- Total ADC concentration in the serum of minipigs ([1]; pig, in vivo, sc, 5 mL, 24 h): 7.27 µg/mL
- Total ADC concentration in the serum of minipigs ([1]; pig, in vivo, sc, 48 h): 5.17 µg/mL
- Total ADC concentration in the serum of minipigs ([1]; pig, in vivo, sc, 72 h): 4.35 µg/mL
- Total ADC concentration in the serum of minipigs ([1]; pig, in vivo, sc, 96 h): 3.74 µg/mL
- Total ADC concentration in the serum of minipigs ([1]; pig, in vivo, sc, 168 h): 2.04 µg/mL
- TADC/Free Payload, AUC0-7 ([1]; serum, IV): 116066%
- TADC/Free Payload, Cmax ([1]; serum, IV): 201037%
- TADC/TAB, AUC0-7 ([1]; serum, IV): 86%
- TADC/TAB, Cmax ([1]; serum, IV): 93%
- TADC/TAB Ratio ([1]; serum, IV, 6 h, individual animal): 0.92 and 0.918
- TADC/TAB Ratio ([1]; serum, IV, 24 h, individual animal): 0.87 and 0.871
- TADC/TAB Ratio ([1]; serum, IV, 48 h, individual animal): 0.80 and 0.804
- TADC/TAB Ratio ([1]; serum, IV, 72 h, individual animal): 0.88 and 0.877
- TADC/TAB Ratio ([1]; serum, IV, 96 h, individual animal): 0.77 and 0.773
- TADC/TAB Ratio ([1]; serum, IV, 168 h, individual animal): 0.99 and 0.994
- TADC/Free Payload, AUC0-7 ([1]; serum, SC): 83512%
- TADC/Free Payload, Cmax ([1]; serum, SC): 83474%
- TADC/Free Payload, Tmax ([1]; serum, SC): 57%
- TADC/TAB, AUC0-7 ([1]; serum, SC): 87%
- TADC/TAB, Cmax ([1]; serum, SC): 96%
- TADC/TAB, Tmax ([1]; serum, SC): 60%
- TADC/TAB Ratio ([1]; serum, SC, 6 h, individual animals): 1.01 and 1.13 and 1.03 and 1.006 and 1.129 and 1.026
- TADC/TAB Ratio ([1]; serum, SC, 24 h, individual animals): 1.55 and 0.84 and 1.19 and 1.546 and 0.845 and 1.194
- TADC/TAB Ratio ([1]; serum, SC, 48 h, individual animals): 0.81 and 0.82 and 0.76 and 0.808 and 0.823 and 0.756
- TADC/TAB Ratio ([1]; serum, SC, 72 h, individual animals): 0.76 and 0.72 and 0.93 and 0.763 and 0.721 and 0.934
- TADC/TAB Ratio ([1]; serum, SC, 96 h, individual animals): 0.74 and 0.73 and 0.82 and 0.744 and 0.731 and 0.819
- TADC/TAB Ratio ([1]; serum, SC, 168 h, individual animals): 1.20 and 0.89 and 0.99 and 1.204 and 0.891 and 0.989
- Height (mm) (Mean ± SEM) [2, 4]: 10.8 ± 0.6 mm
- Volume (cc) (Mean ± SEM) [2, 4]: 65.5 ± 3.6 cc
- Height (mm) (Mean ± SEM) [2, 5]: 10.8 ± 0.6 mm
- Volume (cc) (Mean ± SEM) [2, 5]: 65.5 ± 3.6 cc
- Post-injection bleb Area, caliper (Mean ± SEM) ([2]; minipig, 10 mL SC by HVAI, Trodelvy (ADC) ± rHuPH20 2000 U/mL, T0, n=3, Examples 1, 2, 5): 25.4 ± 0.5
- Post-injection bleb Volume, caliper (Mean ± SEM) ([2]; minipig, 10 mL SC by HVAI, Trodelvy (ADC) ± rHuPH20 2000 U/mL, T0, n=3, Examples 1, 2, 5 (FIG. 3: mL)): 44.3 ± 4.0
- Post-injection bleb Height, caliper (Mean ± SEM) ([2]; minipig, 10 mL SC by HVAI, Trodelvy (ADC) ± rHuPH20 2000 U/mL, T0, n=3, Examples 1, 2, 5 (FIG. 5: mm)): 8.7 ± 0.7
- Induration (score) [3, 6]: 3.3 ± 0.3
- Swelling Size (score) [3, 6]: 3.1 ± 0.3
- Induration at the 24, 48 or 72 hour timepoints ([3]; minipig, 10 mL SC by HVAI): No induration was detected
- Swelling at the 24, 48 or 72 hour timepoints ([3]; minipig, 10 mL SC by HVAI): No swelling was detected
- Swelling Score (Mean ± SEM) ([3]; minipig, 10 mL SC by HVAI, immediately post-injection, three evaluators, scale 0-4): 3.1 ± 0.3
- Induration Score (Mean ± SEM) ([3]; minipig, 10 mL SC by HVAI, immediately post-injection, two evaluators, scale 0-4): 3.3 ± 0.3
- Hardness (induration) of post-injection blebs compared with blebs of the co-mix with rHuPH20 ([3]; p<0.05, 10 mL SC): significantly firmer
